Measured values reported in patent US20100203046A1 (Biogen, published 2010).

Key:
human C1q (Sigma C0660) [1] = target: T1, human C1q (Sigma C0660) (human, UniProt P02745 23-245; P02746 28-253; P02747 29-245); assay: C1q ELISA on CD2, purified
T1 construct: Bought protein; also called complement protein C1q
Description: (§1) The C1q binding assay was performed by coating 96 well Maxisorb ELISA plates (Nalge-Nunc Rochester, N.Y., USA) with 50 μl recombinant soluble human CD2 at 10 μg/ml overnight at 4° C. in PBS. The wells were aspirated and washed three times with wash buffer (PBS, 0.05% Tween 20) and blocked for >1 h with 200 μ/well of block/diluent buffer (0.1 M Na₂HPO₄, pH 7, 0.1 M NaCl, 0.05% Tween 20, 0.1% gelatin). The antibody to be tested was diluted in block/diluent buffer starting at 15 μg/ml with 3-fold dilutions. 50 μl were added per well, and the plates incubated for 2 h at room temperature. After aspirating and washing as above, 50 μl/well of 2 μg/ml of Sigma human C1q (C0660) diluted in block/diluent buffer was added and incubated for 1.5 h at room temperature. After aspirating and washing as above, 50 μl/well of chicken anti human C1q (Cedarlane laboratories CL2101AP), diluted 2,000-fold in block/diluent buffer, was added. After incubation for 1.5 h at room temperature, the wells were aspirated and washed as above. 50 μl/well of donkey F(ab′)₂ anti chicken IgY HRP conjugate (Jackson ImmunoResearch 703-036-155) diluted to 1:5,000 in block/diluent was then added, and the wells incubated for 1 h at room temperature. After aspirating and washing as above, 100 μl TMB substrate (420 μM TMB, 0.004% H₂O₂ in 0.1 M sodium acetate/citric acid buffer, pH 4.9) was added and incubated for 2 min before the reaction was stopped with 100 μl 2 N sulfuric acid. The absorbance was read at 450 nm with a Softmax P instrument, and Softmax software was used to determine the relative binding affinity (C value) with a 4-parameter fit.

[2] = target: T2, human FcγRI (CD64) on IFNγ-activated U937 cells (human, UniProt P12314 16-374); assay: CD64 bridging assay, purified
T2 construct: whole, on cells; also called FcγR1
T2 sequence (P12314 16-374): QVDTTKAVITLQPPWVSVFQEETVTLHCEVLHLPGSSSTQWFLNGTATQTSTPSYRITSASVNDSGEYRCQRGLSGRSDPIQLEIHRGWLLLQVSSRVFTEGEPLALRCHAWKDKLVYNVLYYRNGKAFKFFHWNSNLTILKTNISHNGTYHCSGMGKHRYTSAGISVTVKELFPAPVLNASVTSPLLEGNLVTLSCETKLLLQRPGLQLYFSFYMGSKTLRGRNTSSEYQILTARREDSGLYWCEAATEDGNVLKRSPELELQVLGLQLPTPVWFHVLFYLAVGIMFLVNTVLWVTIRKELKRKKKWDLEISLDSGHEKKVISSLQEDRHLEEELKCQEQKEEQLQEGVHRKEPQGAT

[3] = target: T3, human FcγRIII (CD16), CD16a (F158), on CD16-transfected Jurkat cells (human, UniProt P08637 17-254); assay: CD16 bridging assay, transient
T3 construct: whole, on cells
T3 sequence (P08637 17-254): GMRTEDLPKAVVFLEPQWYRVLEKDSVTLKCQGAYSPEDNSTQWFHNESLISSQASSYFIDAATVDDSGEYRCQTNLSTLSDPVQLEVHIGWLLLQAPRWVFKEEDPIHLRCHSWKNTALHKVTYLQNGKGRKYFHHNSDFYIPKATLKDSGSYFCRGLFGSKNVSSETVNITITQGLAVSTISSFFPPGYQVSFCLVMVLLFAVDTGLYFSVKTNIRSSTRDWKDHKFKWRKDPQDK

human C1q (Sigma C0660) [4] = target: T1, human C1q (Sigma C0660); assay: C1q ELISA on CD2, transient
Description: as §1

T1 sequence (P02745 23-245 limits assumed, chain 1 of 3): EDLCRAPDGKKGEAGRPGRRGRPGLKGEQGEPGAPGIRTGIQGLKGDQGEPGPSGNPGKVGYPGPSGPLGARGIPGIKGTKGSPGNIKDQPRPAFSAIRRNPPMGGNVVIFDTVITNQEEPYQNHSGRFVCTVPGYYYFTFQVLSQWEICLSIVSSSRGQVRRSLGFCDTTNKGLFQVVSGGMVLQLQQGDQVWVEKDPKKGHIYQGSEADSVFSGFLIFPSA
T1 sequence (P02746 28-253 limits assumed, chain 2 of 3): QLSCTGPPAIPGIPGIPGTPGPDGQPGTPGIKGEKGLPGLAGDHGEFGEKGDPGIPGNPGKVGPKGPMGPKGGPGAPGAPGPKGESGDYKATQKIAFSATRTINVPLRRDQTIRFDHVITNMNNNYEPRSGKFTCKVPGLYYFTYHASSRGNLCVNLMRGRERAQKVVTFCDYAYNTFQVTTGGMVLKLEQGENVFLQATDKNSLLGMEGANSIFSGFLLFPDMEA
T1 sequence (P02747 29-245 limits assumed, chain 3 of 3): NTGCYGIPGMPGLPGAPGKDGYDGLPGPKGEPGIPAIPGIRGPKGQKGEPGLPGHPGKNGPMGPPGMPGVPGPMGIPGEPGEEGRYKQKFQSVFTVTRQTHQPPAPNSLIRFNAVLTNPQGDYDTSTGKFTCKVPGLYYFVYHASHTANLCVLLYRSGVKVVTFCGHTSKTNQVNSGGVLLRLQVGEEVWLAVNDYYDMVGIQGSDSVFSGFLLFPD

B1: chCB6-huIgG1 K334D (antibody, name in EU numbering)
heavy: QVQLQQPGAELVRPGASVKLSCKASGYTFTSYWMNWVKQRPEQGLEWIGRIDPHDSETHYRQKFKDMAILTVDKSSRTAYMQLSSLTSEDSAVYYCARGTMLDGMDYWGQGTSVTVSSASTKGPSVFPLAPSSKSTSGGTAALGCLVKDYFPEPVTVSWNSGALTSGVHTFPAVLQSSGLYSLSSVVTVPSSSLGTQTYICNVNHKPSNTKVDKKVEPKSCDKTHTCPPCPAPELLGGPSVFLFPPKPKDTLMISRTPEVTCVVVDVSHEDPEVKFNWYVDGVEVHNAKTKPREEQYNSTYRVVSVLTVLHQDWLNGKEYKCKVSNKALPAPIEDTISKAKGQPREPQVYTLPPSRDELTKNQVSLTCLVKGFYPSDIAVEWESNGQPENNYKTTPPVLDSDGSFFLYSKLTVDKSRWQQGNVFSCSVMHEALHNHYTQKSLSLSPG
light: QIVLTQSPAIMSASPGEKVTMTCRASSSVSHMHWYQQKSGTSPKRWIYDTSKLASGVPARFSGSGSGTSYSLTISSVEAEDAATYYCQQWSSNPLTFGAGTKLELKRTVAAPSVFIFPPSDEQLKSGTASVVCLLNNFYPREAKVQWKVDNALQSGNSQESVTEQDSKDSTYSLSSTLTLSKADYEKHKVYACEVTHQGLSSPVTKSFNRGEC
notes: copies: 2 + 2
Does B1 bind (human C1q (Sigma C0660) [1])?
Result: binds

Does B1 bind [2]?
Result: binds

Does B1 bind [3]?
Result: binds

B2: chCB6-huIgG1 K326D (antibody, name in EU numbering)
heavy: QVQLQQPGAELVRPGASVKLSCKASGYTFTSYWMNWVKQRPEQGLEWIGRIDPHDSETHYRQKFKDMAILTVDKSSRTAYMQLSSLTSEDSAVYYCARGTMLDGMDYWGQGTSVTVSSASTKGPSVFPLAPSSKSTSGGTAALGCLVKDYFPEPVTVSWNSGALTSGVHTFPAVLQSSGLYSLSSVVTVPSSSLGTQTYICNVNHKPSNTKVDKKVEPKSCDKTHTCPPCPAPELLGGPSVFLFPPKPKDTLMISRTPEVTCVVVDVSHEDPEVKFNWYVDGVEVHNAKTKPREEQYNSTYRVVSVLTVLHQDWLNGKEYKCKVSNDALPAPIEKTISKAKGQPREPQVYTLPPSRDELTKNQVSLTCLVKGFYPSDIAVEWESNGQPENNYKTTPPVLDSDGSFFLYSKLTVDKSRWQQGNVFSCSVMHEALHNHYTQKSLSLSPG
light: QIVLTQSPAIMSASPGEKVTMTCRASSSVSHMHWYQQKSGTSPKRWIYDTSKLASGVPARFSGSGSGTSYSLTISSVEAEDAATYYCQQWSSNPLTFGAGTKLELKRTVAAPSVFIFPPSDEQLKSGTASVVCLLNNFYPREAKVQWKVDNALQSGNSQESVTEQDSKDSTYSLSSTLTLSKADYEKHKVYACEVTHQGLSSPVTKSFNRGEC
notes: copies: 2 + 2
How did the “fold increase in binding vs WT” value (human C1q (Sigma C0660) [1]) turn out when B2 was run?
Its value is 2 fold.

Does B2 bind [2]?
Result: binds

Does B2 bind [3]?
Result: binds

B3: chCB6-huIgG1 L234D (antibody, name in EU numbering)
heavy: not shown
light: QIVLTQSPAIMSASPGEKVTMTCRASSSVSHMHWYQQKSGTSPKRWIYDTSKLASGVPARFSGSGSGTSYSLTISSVEAEDAATYYCQQWSSNPLTFGAGTKLELKRTVAAPSVFIFPPSDEQLKSGTASVVCLLNNFYPREAKVQWKVDNALQSGNSQESVTEQDSKDSTYSLSSTLTLSKADYEKHKVYACEVTHQGLSSPVTKSFNRGEC
notes: copies: 2 + 2
With B3 as the binder, how does the “fold decrease in binding vs WT” value [3] read?
The value was 4 fold.

B4: chCB6-huIgG1 F241H (antibody, name in EU numbering)
heavy: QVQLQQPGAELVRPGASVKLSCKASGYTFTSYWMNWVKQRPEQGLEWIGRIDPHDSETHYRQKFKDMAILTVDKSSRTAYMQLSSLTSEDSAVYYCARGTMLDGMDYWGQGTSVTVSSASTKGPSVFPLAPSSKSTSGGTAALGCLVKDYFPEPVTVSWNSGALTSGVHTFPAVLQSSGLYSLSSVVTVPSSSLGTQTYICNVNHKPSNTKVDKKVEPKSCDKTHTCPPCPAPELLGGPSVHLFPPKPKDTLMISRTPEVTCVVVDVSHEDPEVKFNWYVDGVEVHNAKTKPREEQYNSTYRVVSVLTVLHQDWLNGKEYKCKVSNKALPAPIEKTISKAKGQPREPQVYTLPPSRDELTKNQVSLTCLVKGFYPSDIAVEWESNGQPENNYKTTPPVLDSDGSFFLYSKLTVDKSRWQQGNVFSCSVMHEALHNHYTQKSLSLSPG
light: QIVLTQSPAIMSASPGEKVTMTCRASSSVSHMHWYQQKSGTSPKRWIYDTSKLASGVPARFSGSGSGTSYSLTISSVEAEDAATYYCQQWSSNPLTFGAGTKLELKRTVAAPSVFIFPPSDEQLKSGTASVVCLLNNFYPREAKVQWKVDNALQSGNSQESVTEQDSKDSTYSLSSTLTLSKADYEKHKVYACEVTHQGLSSPVTKSFNRGEC
notes: copies: 2 + 2
Which “fold decrease in binding vs WT” value [3] does the source give for B4 here?
Its value is 9 fold.

B5: chCB6-huIgG1 D265E (antibody, name in EU numbering)
heavy: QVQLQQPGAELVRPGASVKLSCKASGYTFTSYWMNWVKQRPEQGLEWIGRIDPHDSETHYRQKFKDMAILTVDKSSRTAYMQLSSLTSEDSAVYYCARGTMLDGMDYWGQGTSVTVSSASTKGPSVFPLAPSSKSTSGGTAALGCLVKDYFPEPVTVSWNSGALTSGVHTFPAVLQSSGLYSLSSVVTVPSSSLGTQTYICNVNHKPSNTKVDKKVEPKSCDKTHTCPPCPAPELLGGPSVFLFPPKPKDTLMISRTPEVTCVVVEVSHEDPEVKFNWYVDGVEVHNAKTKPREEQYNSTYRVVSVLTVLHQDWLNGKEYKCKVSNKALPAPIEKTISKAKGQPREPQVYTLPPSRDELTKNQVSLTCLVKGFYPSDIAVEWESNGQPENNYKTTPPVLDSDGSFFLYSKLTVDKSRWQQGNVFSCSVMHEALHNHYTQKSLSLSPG
light: QIVLTQSPAIMSASPGEKVTMTCRASSSVSHMHWYQQKSGTSPKRWIYDTSKLASGVPARFSGSGSGTSYSLTISSVEAEDAATYYCQQWSSNPLTFGAGTKLELKRTVAAPSVFIFPPSDEQLKSGTASVVCLLNNFYPREAKVQWKVDNALQSGNSQESVTEQDSKDSTYSLSSTLTLSKADYEKHKVYACEVTHQGLSSPVTKSFNRGEC
notes: copies: 2 + 2
Does B5 bind [3]?
Result: no binding

B6: chCB6-huIgG1 E294A (antibody, name in EU numbering)
heavy: not shown
light: QIVLTQSPAIMSASPGEKVTMTCRASSSVSHMHWYQQKSGTSPKRWIYDTSKLASGVPARFSGSGSGTSYSLTISSVEAEDAATYYCQQWSSNPLTFGAGTKLELKRTVAAPSVFIFPPSDEQLKSGTASVVCLLNNFYPREAKVQWKVDNALQSGNSQESVTEQDSKDSTYSLSSTLTLSKADYEKHKVYACEVTHQGLSSPVTKSFNRGEC
notes: copies: 2 + 2
B6 was tested. Which “fold decrease in binding vs WT” value (human C1q (Sigma C0660) [1]) did it give?
Its value is 3 fold.

B7: chCB6-huIgG1 K326Q (antibody, name in EU numbering)
heavy: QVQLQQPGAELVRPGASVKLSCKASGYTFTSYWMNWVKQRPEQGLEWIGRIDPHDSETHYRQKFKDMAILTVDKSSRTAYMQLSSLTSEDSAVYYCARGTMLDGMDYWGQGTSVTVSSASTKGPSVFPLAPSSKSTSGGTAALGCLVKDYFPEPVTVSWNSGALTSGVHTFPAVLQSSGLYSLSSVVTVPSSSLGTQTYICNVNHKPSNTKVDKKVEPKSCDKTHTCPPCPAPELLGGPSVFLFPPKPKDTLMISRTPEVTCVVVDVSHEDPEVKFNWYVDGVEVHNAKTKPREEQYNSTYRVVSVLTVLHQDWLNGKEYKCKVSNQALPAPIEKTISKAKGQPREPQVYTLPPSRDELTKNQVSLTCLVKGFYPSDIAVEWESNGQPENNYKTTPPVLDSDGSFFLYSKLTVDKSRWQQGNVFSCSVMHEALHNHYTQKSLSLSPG
light: QIVLTQSPAIMSASPGEKVTMTCRASSSVSHMHWYQQKSGTSPKRWIYDTSKLASGVPARFSGSGSGTSYSLTISSVEAEDAATYYCQQWSSNPLTFGAGTKLELKRTVAAPSVFIFPPSDEQLKSGTASVVCLLNNFYPREAKVQWKVDNALQSGNSQESVTEQDSKDSTYSLSSTLTLSKADYEKHKVYACEVTHQGLSSPVTKSFNRGEC
notes: copies: 2 + 2
Does B7 bind (human C1q (Sigma C0660) [1])?
Result: binds

Does B7 bind [2]?
Result: binds

Does B7 bind [3]?
Result: binds

B8: chCB6-huIgG1 K338M (antibody, name in EU numbering)
heavy: not shown
light: QIVLTQSPAIMSASPGEKVTMTCRASSSVSHMHWYQQKSGTSPKRWIYDTSKLASGVPARFSGSGSGTSYSLTISSVEAEDAATYYCQQWSSNPLTFGAGTKLELKRTVAAPSVFIFPPSDEQLKSGTASVVCLLNNFYPREAKVQWKVDNALQSGNSQESVTEQDSKDSTYSLSSTLTLSKADYEKHKVYACEVTHQGLSSPVTKSFNRGEC
notes: copies: 2 + 2
How did the “fold decrease in binding vs WT” value [3] turn out when B8 was run?
Its value is 6 fold.

B9: chCB6-huIgG1 E293D (antibody, name in EU numbering)
heavy: not shown
light: QIVLTQSPAIMSASPGEKVTMTCRASSSVSHMHWYQQKSGTSPKRWIYDTSKLASGVPARFSGSGSGTSYSLTISSVEAEDAATYYCQQWSSNPLTFGAGTKLELKRTVAAPSVFIFPPSDEQLKSGTASVVCLLNNFYPREAKVQWKVDNALQSGNSQESVTEQDSKDSTYSLSSTLTLSKADYEKHKVYACEVTHQGLSSPVTKSFNRGEC
notes: copies: 2 + 2
With B9 as the binder, how does the “fold decrease in binding vs WT” value [3] read?
The value was 4 fold.

B10: chCB6-huIgG1 Y296F (antibody, name in EU numbering)
heavy: not shown
light: QIVLTQSPAIMSASPGEKVTMTCRASSSVSHMHWYQQKSGTSPKRWIYDTSKLASGVPARFSGSGSGTSYSLTISSVEAEDAATYYCQQWSSNPLTFGAGTKLELKRTVAAPSVFIFPPSDEQLKSGTASVVCLLNNFYPREAKVQWKVDNALQSGNSQESVTEQDSKDSTYSLSSTLTLSKADYEKHKVYACEVTHQGLSSPVTKSFNRGEC
notes: copies: 2 + 2
Which “fold decrease in binding vs WT” value [3] does the source give for B10 here?
The value was 2 fold.

B11: chCB6-huIgG1 D270E (antibody, name in EU numbering)
heavy: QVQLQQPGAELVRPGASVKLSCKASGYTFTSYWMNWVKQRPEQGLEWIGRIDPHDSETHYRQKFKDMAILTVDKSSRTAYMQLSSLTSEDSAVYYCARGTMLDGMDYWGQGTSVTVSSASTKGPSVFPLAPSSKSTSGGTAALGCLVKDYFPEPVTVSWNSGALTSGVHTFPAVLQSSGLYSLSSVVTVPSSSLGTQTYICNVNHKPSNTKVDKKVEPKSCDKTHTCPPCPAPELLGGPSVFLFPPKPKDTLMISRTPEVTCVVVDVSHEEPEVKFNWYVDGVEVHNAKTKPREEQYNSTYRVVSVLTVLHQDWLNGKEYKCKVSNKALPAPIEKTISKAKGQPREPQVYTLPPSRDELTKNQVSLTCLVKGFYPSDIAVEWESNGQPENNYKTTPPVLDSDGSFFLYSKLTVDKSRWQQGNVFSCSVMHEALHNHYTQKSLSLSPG
light: QIVLTQSPAIMSASPGEKVTMTCRASSSVSHMHWYQQKSGTSPKRWIYDTSKLASGVPARFSGSGSGTSYSLTISSVEAEDAATYYCQQWSSNPLTFGAGTKLELKRTVAAPSVFIFPPSDEQLKSGTASVVCLLNNFYPREAKVQWKVDNALQSGNSQESVTEQDSKDSTYSLSSTLTLSKADYEKHKVYACEVTHQGLSSPVTKSFNRGEC
notes: copies: 2 + 2
Does B11 bind [3]?
Result: binds

B12: chCB6-huIgG1 E333D (antibody, name in EU numbering)
heavy: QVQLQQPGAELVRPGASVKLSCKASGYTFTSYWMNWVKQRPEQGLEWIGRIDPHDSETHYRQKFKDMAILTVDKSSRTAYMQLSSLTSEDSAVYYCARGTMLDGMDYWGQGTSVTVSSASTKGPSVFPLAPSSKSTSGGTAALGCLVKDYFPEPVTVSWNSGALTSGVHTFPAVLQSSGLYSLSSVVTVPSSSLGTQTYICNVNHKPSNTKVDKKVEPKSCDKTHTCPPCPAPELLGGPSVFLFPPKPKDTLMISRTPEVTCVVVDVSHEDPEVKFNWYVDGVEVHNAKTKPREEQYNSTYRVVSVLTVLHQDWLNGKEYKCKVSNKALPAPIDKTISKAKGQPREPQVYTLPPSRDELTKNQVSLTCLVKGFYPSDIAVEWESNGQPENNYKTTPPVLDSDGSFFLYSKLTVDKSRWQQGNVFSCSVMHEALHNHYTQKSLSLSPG
light: QIVLTQSPAIMSASPGEKVTMTCRASSSVSHMHWYQQKSGTSPKRWIYDTSKLASGVPARFSGSGSGTSYSLTISSVEAEDAATYYCQQWSSNPLTFGAGTKLELKRTVAAPSVFIFPPSDEQLKSGTASVVCLLNNFYPREAKVQWKVDNALQSGNSQESVTEQDSKDSTYSLSSTLTLSKADYEKHKVYACEVTHQGLSSPVTKSFNRGEC
notes: copies: 2 + 2
How did the “fold decrease in binding vs WT” value (human C1q (Sigma C0660) [1]) turn out when B12 was run?
The value was 2 fold.

Does B12 bind [2]?
Result: binds

Does B12 bind [3]?
Result: binds

B13: chCB6-huIgG1 Y296S (antibody, name in EU numbering)
heavy: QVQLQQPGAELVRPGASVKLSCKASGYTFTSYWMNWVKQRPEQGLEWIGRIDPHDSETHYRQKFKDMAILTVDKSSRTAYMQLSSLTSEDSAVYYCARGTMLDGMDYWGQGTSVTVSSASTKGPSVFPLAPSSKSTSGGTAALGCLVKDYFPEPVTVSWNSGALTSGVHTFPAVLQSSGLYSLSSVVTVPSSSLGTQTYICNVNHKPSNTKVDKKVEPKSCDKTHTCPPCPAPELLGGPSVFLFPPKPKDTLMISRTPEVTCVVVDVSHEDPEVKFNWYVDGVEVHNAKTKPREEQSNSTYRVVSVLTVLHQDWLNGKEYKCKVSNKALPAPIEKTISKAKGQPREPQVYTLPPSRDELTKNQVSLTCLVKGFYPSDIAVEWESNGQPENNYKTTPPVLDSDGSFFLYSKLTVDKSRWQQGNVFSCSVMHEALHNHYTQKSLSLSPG
light: QIVLTQSPAIMSASPGEKVTMTCRASSSVSHMHWYQQKSGTSPKRWIYDTSKLASGVPARFSGSGSGTSYSLTISSVEAEDAATYYCQQWSSNPLTFGAGTKLELKRTVAAPSVFIFPPSDEQLKSGTASVVCLLNNFYPREAKVQWKVDNALQSGNSQESVTEQDSKDSTYSLSSTLTLSKADYEKHKVYACEVTHQGLSSPVTKSFNRGEC
notes: copies: 2 + 2
For B13, which “fold decrease in binding vs WT” value (human C1q (Sigma C0660) [1]) is on record?
The value was 5 fold.

What about the “fold decrease in binding vs WT” value (human C1q (Sigma C0660) [4]) of the same binder?
Its value is 4 fold.

B14: chCB6-huIgG1 K326N (antibody, name in EU numbering)
heavy: not shown
light: QIVLTQSPAIMSASPGEKVTMTCRASSSVSHMHWYQQKSGTSPKRWIYDTSKLASGVPARFSGSGSGTSYSLTISSVEAEDAATYYCQQWSSNPLTFGAGTKLELKRTVAAPSVFIFPPSDEQLKSGTASVVCLLNNFYPREAKVQWKVDNALQSGNSQESVTEQDSKDSTYSLSSTLTLSKADYEKHKVYACEVTHQGLSSPVTKSFNRGEC
notes: copies: 2 + 2
Does B14 bind [3]?
Result: binds

B15: chCB6-huIgG1 K326E (antibody, name in EU numbering)
heavy: not shown
light: QIVLTQSPAIMSASPGEKVTMTCRASSSVSHMHWYQQKSGTSPKRWIYDTSKLASGVPARFSGSGSGTSYSLTISSVEAEDAATYYCQQWSSNPLTFGAGTKLELKRTVAAPSVFIFPPSDEQLKSGTASVVCLLNNFYPREAKVQWKVDNALQSGNSQESVTEQDSKDSTYSLSSTLTLSKADYEKHKVYACEVTHQGLSSPVTKSFNRGEC
notes: copies: 2 + 2
Does B15 bind [3]?
Result: binds
